# Where no end group is shown, it is not given here.
# Target: T1, hCCR8 (Homo sapiens, UniProt P51685)
# T1 construct: expressed in transfected cells
# Assay: Flow cytometry binding of VHH-Fc fusion antibodies to hCCR8 on stably transfected HEK293 cells
# Conditions: Table 12; for EC50: VHH-2 CDR alanine mutants as human Fc fusions, HEK293 hCCR8; for % Bmax: normalized to wild type VHH-2-Fc
# Protocol: VHH-Fc fusion antibodies were evaluated for their ability to bind to hCCR8 on stably transfected HEK293 cells by means of flow cytometry. Cells were incubated with different concentrations of the bivalent VHH-Fc fusions for 60 minutes at 4° C., followed by two washes with FACS buffer, followed by 30 minutes incubation at 4° C. with the Zenon R-Phycoerythrin Anti-human IgG (ThermoFisher Scientific, #Z-25455), and two additional washing steps. Data were plotted and fit using GraphPad Prism software. EC50 and Bmax values individual antibodies were calculated from the resulting dose-response curves. Bivalent VHH-Fc fusions (Seq ID NOs: 31, 33, and 87-103) of 19 different VHH domains (SEQ ID NOs: 27, 28, and 70-86) were tested for cell binding and results are shown in Table 7. […]
# VHH-Fc fusion DNA constructs were then generated comprising encoding humanized VHH sequences (SEQ ID NOs: 106-111) fused in frame to the human IgG1 (SEQ ID NO: 34) directly to the short hinge sequence in the pFuse expression vector, and were expressed, purified and analyzed for binding to HEK293 cells expressing human CCR8 as in Example 5. Binding curves for VHH-Fc antibodies comprised of parental VHH-1 and the humanized VHH derivatives VHH-1.2-Fc and VHH-1.3-Fc are shown in FIG. 9A. Binding curves for VHH-Fc antibodies comprised of parental VHH-2 and the humanized VHH derivatives VHH-2-Fc, VHH-2.2-Fc and VHH-2.3-Fc, are shown in FIG. 9B. Cell binding EC50 values, normalized Bmax (relative to respective parental clone) data and humanizing mutations are shown in Table 10 below.
# Approaches such as in vitro affinity maturation and rational mutagenesis can be performed to regain binding affinity and/or stability lost through humanization. In vitro affinity maturation generally involves building and amino acid substitution library where amino acid positions are varied across the CDRs and/or framework at a defined set of positions using sets of amino acids chosen to introduce new chemical diversity. The paratope residues within the CDR regions are of course key to antigen binding and care must be taken not to disrupt important structures while attempting to evolve improve antibody behavior. One approach to identify positions that are important to the maintenance of binding properties is to perform paratope mapping using single scanning alanine substitutions across antibody CDR regions. In this approach, residues that are critical to the maintenance of antibody binding to the antigen can be identified and at the same time permissive sites can be identified where it may be possible to make substitutions of other amino acids desirable for subsequent affinity maturation library construction. Site directed mutagenesis was used to make single alanine substitutions at each residue in the CDRs of VHH-1 (SEQ ID NO: 27) and VHH-2 (SEQ ID NO: 28). Changes in VHH-1 CDR amino acids to alanine are indicated in Table 11 (SEQ ID NOs: 112-137) and for VHH-2 CDRs (SEQ ID NO: 138-162) in Table 12. Mutation positions and residue changes to alanine with respect to the in the parental VHH sequences are referenced by their IMGT position. VHH domains containing the indicated modified CDR-1, CDR-2 or CDR-3 domains were used to construct Fc fusions by direct grafting to the short hinge of the human Fc domain (SEQ ID NO: 34). VHH-Fc constructs were expressed, purified and analyzed for binding to HEK293 cells expressing hCCR8 and the results are reported in Table 11 and Table 12. EC50 values are reported for each Fc fusion antibody containing a modified CDR, along with its respective Bmax value normalized to the to the matched wild type VHH-1-Fc or VHH-2-Fc fusion antibody.
# T1 sequence (P51685 whole entry): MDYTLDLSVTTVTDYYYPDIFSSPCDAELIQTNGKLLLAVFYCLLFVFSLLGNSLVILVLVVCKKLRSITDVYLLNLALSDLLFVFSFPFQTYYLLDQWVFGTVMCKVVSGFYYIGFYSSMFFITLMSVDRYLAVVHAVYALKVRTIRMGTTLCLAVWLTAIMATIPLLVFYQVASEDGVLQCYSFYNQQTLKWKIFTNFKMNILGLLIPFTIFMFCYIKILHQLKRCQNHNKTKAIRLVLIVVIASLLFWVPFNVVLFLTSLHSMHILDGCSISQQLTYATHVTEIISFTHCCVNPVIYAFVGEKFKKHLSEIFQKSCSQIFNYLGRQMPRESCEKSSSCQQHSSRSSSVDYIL
Substance,EC50,% Bmax
"VHH-2 S113A: VHH-2 alanine mutant, CDR3 QARMAMGSAQVVY, fused to human IgG1 Fc (also: CDR3 of VHH-2 in VHH fused to human IgG1 Fc)",0.9 nM,48%
"VHH-2 Y117A: VHH-2 alanine mutant, CDR3 QARMAMGSSQVVA, fused to human IgG1 Fc (also: CDR3 of VHH-2 in VHH fused to human IgG1 Fc)",0.86 nM,76%
"VHH-2 S30A: VHH-2 alanine mutant, CDR1 GSTATINR, fused to human IgG1 Fc (also: CDR1 of VHH-2 in VHH fused to human IgG1 Fc)",1.62 nM,66%
"VHH-2 S58A: VHH-2 alanine mutant, CDR2 TSARTSP, fused to human IgG1 Fc (also: CDR2 of VHH-2 in VHH fused to human IgG1 Fc)",1.02 nM,65%
"VHH-2 T29A: VHH-2 alanine mutant, CDR1 GSASTINR, fused to human IgG1 Fc (also: CDR1 of VHH-2 in VHH fused to human IgG1 Fc)",1.43 nM,65%
"VHH-2 S28A: VHH-2 alanine mutant, CDR1 GATSTINR, fused to human IgG1 Fc (also: CDR1 of VHH-2 in VHH fused to human IgG1 Fc)",1.61 nM,68%
"VHH-2 S63A: VHH-2 alanine mutant, CDR2 TSSRTAP, fused to human IgG1 Fc (also: CDR2 of VHH-2 in VHH fused to human IgG1 Fc)",1.08 nM,70%
"VHH-2 V115A: VHH-2 alanine mutant, CDR3 QARMAMGSSQAVY, fused to human IgG1 Fc (also: CDR3 of VHH-2 in VHH fused to human IgG1 Fc)",1.34 nM,11%
"VHH-2 T35A: VHH-2 alanine mutant, CDR1 GSTSAINR, fused to human IgG1 Fc (also: CDR1 of VHH-2 in VHH fused to human IgG1 Fc)",0.87 nM,65%
"VHH-2 V116A: VHH-2 alanine mutant, CDR3 QARMAMGSSQVAY, fused to human IgG1 Fc (also: CDR3 of VHH-2 in VHH fused to human IgG1 Fc)",0.83 nM,72%
"VHH-2 T59A: VHH-2 alanine mutant, CDR2 TSSRASP, fused to human IgG1 Fc",1.48 nM,74%
"VHH-2 S57A: VHH-2 alanine mutant, CDR2 TASRTSP, fused to human IgG1 Fc (also: CDR2 of VHH-2 in VHH fused to human IgG1 Fc)",1.03 nM,69%

# From US20250092146A1, “ANTI-CCR8 ANTIBODIES, CONJUGATES, AND USES THEREOF” (Abilita Bio, Inc., priority 2023, published 2025)
